Data reported in paper PMC3689955.

Biological target: XRCC4/Ligase IV (XL) (UniProt Q13426)
Sequence (Q13426 whole entry, chain 1 of 2): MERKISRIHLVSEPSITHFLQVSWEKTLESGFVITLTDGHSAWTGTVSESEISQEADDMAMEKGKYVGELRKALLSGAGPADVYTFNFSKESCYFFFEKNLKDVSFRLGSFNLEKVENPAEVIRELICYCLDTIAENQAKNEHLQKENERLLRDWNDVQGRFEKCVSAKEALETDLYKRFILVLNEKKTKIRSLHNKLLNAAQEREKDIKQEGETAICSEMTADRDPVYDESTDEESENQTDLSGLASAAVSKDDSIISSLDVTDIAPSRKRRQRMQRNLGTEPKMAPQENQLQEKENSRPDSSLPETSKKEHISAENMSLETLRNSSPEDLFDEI
Sequence (P49917 whole entry, chain 2 of 2, further chain): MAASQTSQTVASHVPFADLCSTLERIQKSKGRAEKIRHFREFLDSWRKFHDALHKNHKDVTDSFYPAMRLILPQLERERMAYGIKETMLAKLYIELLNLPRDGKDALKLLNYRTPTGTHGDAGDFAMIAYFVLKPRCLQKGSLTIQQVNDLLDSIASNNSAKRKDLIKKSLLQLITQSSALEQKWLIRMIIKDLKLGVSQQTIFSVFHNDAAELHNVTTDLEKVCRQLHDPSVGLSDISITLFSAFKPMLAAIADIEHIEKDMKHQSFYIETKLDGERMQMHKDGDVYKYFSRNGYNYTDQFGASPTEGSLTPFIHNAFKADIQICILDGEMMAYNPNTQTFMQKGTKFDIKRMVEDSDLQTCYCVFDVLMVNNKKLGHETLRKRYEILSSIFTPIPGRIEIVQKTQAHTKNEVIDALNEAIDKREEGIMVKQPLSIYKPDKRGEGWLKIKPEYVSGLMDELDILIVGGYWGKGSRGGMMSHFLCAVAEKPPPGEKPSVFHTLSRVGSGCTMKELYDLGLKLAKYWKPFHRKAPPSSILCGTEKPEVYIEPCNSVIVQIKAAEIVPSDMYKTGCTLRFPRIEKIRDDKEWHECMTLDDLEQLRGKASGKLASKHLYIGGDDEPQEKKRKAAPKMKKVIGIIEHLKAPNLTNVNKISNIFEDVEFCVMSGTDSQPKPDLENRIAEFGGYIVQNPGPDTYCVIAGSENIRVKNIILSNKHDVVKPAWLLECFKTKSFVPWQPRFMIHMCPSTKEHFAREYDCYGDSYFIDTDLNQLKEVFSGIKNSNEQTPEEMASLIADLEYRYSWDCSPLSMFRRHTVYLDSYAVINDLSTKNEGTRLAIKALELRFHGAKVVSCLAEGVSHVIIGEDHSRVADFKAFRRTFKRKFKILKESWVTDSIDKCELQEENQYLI

XRCC4-like factor (XLF, also known as Cernunnos), sequence (Q9H9Q4 whole entry): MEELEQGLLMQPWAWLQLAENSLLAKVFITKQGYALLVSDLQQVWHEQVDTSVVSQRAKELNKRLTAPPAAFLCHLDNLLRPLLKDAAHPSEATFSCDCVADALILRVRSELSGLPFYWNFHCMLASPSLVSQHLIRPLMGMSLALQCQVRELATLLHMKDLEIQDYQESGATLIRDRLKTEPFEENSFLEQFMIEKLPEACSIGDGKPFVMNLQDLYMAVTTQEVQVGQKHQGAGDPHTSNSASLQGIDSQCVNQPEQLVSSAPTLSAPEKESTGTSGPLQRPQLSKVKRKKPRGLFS

stoichiometry N (XL to XLF molar ratio): 1
Substance: XRCC4-like factor (XLF, also known as Cernunnos) (from UniProt Q9H9Q4 1-299) (natural protein)
